Experimental data taken from PMC3210727 (Science (New York, N.Y.), 2011).

Assays:
Assay in all cases: flow cytometry on cells
[1] = molecular target: surface-expressed H3 HA from A/Hong Kong/1/1968, uncleaved precursor (HA0) (Influenza A virus (strain A/Hong …, UniProt Q91MA7))
[2] = molecular target: surface-expressed H3 HA from A/Hong Kong/1/1968, cleaved (HA) (Influenza A virus (strain A/Hong …, UniProt Q91MA7))
[3] = molecular target: surface-expressed H3 HA from A/Hong Kong/24/1985, cleaved (HA) (Influenza A virus A/Hong Kong/24/1985 …, UniProt Q38TK5, strain)
[4] = molecular target: surface-expressed H7 HA, uncleaved (HA0) (Influenza A virus H7, strain not named; …, UniProt Q6VMK1)
[5] = molecular target: surface-expressed H7 HA, cleaved (HA) (Influenza A virus H7, strain not named; …, UniProt Q6VMK1)

Measured: binding result

B1: human monoclonal antibody CR8020 (antibody, V domains shown)
VH: QVQLQQSGAEVKTPGASVKVSCKASGYTFTSFGVSWIRQAPGQGLEWIGWISAYNGDTYYAQKFQARVTMTTDTSTTTAYMEMRSLRSDDTAVYYCAREPPLFYSSWSLDNWGQGTLVTVSS
VL: EIVMTQSPGTLSLSPGERATLSCRASQSVSMNYLAWFQQKPGQAPRLLIYGASRRATGIPDRISGSGSGTDFTLTISRLEPADFAVYYCQQYGTSPRTFGQGAKVEIK
binds: [1] | [2] | [3] | [4] | [5]
